The test has as its target lysine-acetylated histone H4 peptide SGRGKGG-AcK-GLGK (Lys8 acetylated). Nature of the test: 15N-HSQC backbone amide chemical shift change upon binding to the AcK peptide.

For “bromodomain of P/CAF (residues 719-832 of SEQ ID NO:2) (from UniProt Q92831 719-832)”, the maximum weighted chemical shift difference (Tyr809) was determined as 0.16 ppm.

The values above are taken from US20040043378A1.
